According to paper PMC9122904, “Insights into the client protein release mechanism of the ATP-independent chaperone Spy” (Nature Communications, 2022):

Key:
Assay in all cases: BLI; Octet RED96; client biotinylated and loaded on streptavidin sensors; Spy or Spy variant in solution at 0.25, 0.5, 1, 1.5 and 2 μM; 40 mM HEPES, 150 mM NaCl, pH 7.5; Kd calculated as koff/kon
Settings in all cases: both partners purified
Spy_(27-130) = molecular target: T1, Spy_(27-130) (UniProt P77754 50-153)
T1 construct: Spy chaperone, residues 27-130; source: E. coli BL21 (DE3), purified (Ni-NTA, cation exchange, SEC); not shown: His6, N-terminal, cleaved; SUMO, N-terminal, cleaved
T1 sequence (looked up): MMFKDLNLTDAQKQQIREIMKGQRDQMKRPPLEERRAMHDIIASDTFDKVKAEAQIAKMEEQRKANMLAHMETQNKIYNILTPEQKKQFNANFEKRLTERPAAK
In short: (§1)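 Client proteins were biotinylated with EZ-link NHS-biotin at a 1:1 molar ratio, loaded onto streptavidin sensors, and measured by biolayer interferometry on an Octet RED96. The loaded sensors were dipped into 40 mM HEPES, 150 mM NaCl, pH 7.5 holding the analyte protein at 0.25, 0.5, 1, 1.5 or 2 μM, then moved to buffer without it. Fitting the wavelength-shift association and dissociation curves in SigmaPlot 12.0 gave the observed association rate and koff, kon was taken from the observed rate plotted against analyte concentration, and Kd was calculated as koff/kon.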

Spy_(24-124) = molecular target: T2, Spy_(24-124) (UniProt P77754 47-147)
T2 construct: source: E. coli BL21 (DE3), purified (Ni-NTA, cation exchange, SEC); not shown: His6, N-terminal, cleaved; SUMO, N-terminal, cleaved
T2 sequence (looked up): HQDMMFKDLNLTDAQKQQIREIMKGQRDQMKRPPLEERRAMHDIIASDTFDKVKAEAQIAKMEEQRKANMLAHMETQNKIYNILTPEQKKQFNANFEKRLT
In short: as §1

Spy_(27-124) = molecular target: T3, Spy_(27-124) (UniProt P77754 50-147)
T3 construct: source: E. coli BL21 (DE3), purified (Ni-NTA, cation exchange, SEC); not shown: His6, N-terminal, cleaved; SUMO, N-terminal, cleaved
T3 sequence (looked up): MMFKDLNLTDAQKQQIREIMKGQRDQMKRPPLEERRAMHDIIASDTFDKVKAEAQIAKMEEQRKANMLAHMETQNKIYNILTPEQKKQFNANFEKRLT
In short: as §1

Spy_(24-127) = molecular target: T4, Spy_(24-127) (UniProt P77754 47-150)
T4 construct: Spy chaperone, residues 24-127; source: E. coli BL21 (DE3), purified (Ni-NTA, cation exchange, SEC); not shown: His6, N-terminal, cleaved; SUMO, N-terminal, cleaved
T4 sequence (looked up): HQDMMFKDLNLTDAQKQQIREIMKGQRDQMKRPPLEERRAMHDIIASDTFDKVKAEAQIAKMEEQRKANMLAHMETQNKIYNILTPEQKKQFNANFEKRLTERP
In short: as §1

Spy_(29-127) = molecular target: T5, Spy_(29-127) (UniProt P77754 52-150)
T5 construct: Spy chaperone, residues 29-127; source: E. coli BL21 (DE3), purified (Ni-NTA, cation exchange, SEC); not shown: His6, N-terminal, cleaved; SUMO, N-terminal, cleaved
T5 sequence (looked up): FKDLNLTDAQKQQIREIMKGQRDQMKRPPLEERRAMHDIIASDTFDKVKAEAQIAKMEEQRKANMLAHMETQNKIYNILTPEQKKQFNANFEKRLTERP
In short: as §1

[1] = molecular target: T6, Spy wild type (Spy_(1-138)) (UniProt P77754 24-161)
T6 construct: Spy, ATP-independent periplasmic chaperone; also called WT; wt; source: E. coli BL21 (DE3), purified (Ni-NTA, cation exchange, SEC); not shown: His6, N-terminal, cleaved; SUMO, N-terminal, cleaved
T6 sequence (looked up): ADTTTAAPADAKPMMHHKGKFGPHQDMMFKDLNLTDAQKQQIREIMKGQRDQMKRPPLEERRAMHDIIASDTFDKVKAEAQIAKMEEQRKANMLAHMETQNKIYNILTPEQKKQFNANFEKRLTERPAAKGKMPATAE
In short: as §1

Spy_(27-127) = molecular target: T7, Spy_(27-127) (UniProt P77754 50-150)
T7 construct: Spy chaperone, residues 27-127; source: E. coli BL21 (DE3), purified (Ni-NTA, cation exchange, SEC); not shown: His6, N-terminal, cleaved; SUMO, N-terminal, cleaved
T7 sequence (looked up): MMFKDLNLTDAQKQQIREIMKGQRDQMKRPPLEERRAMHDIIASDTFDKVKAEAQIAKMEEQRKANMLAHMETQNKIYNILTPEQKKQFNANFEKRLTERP
In short: as §1

Spy_(29-124) = molecular target: T8, Spy_(29-124) (UniProt P77754 52-147)
T8 construct: also called termini-free Spy; source: E. coli BL21 (DE3), purified (Ni-NTA, cation exchange, SEC); not shown: His6, N-terminal, cleaved; SUMO, N-terminal, cleaved
T8 sequence (looked up): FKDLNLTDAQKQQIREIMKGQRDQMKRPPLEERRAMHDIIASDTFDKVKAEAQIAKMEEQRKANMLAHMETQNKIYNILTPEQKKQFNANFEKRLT
In short: as §1

- kon (Spy_(27-130)): 313000 M⁻¹ s⁻¹
- kon (Spy_(24-124)): 258000 M⁻¹ s⁻¹
- kon (Spy_(27-124)): 314000 M⁻¹ s⁻¹
- kon (Spy_(24-127)): 227000 M⁻¹ s⁻¹
- kon (Spy_(29-127)): 309000 M⁻¹ s⁻¹
- kon [1]: 276000 M⁻¹ s⁻¹
- kon (Spy_(27-127)): 312000 M⁻¹ s⁻¹
- kon (Spy_(29-124)): 273000 M⁻¹ s⁻¹
B1: Im7 H40W L53A I54A (natural protein)
chain: MELKNSISDYTEAEFVQLLKEIEKENVAATDDVLDVLLEWFVKITEHPDGTDAAYYPSDNRDDSPEGIVKEIKEWRAANGKPGFKQG
modifications: biotin (EZ-link NHS-biotin, 1:1 molar ratio of biotin to protein)
notes: Im7 (colicin E7 immunity protein) with H40W L53A I54A; Spy was made with an N-terminal His6-SUMO tag that was cleaved; also called Im7AAW; partially folded client; source: purified by a similar procedure to Spy
